The DeepSol protein solubility set

Experiment: soluble on expression in E. coli; label from the status in PepcDB or PDB records

Row | Sequence | soluble on expression in E. coli
1 | MKKLTIGLIGNPNSGKTTLFNQLTGSRQRVGNWAGVTVERKEGQFSTTDHQVTLVDLPGTYSLTTISSQTSLDEQIACHYILSGDADLLINVVDASNLERNLYLTLQLLELGIPCIVALNMLDIAEKQNIRIEIDALSARLGCPVIPLVSTRGRGIEALKLAIDRYKANENVELVHYAQPLLNEADSLAKVMPSDIPLKQRRWLGLQMLEGDIYSRAYAGEASQHLDAALARLRNEMDDPALHIADARYQCIAAICDVVSNTLTAEPSRFTTAV | soluble
2 | MGSDKIHHHHHHMIRKIIKIDKEKCNGCGACASACHEGAIDIIDGKAELVREHFCDGLGDCLPECPTGAISFEERDAPAYDEEAVKEAQKKIAAKNRAISSHSGCPGSKIMQIRRTETSEPVKATSTADSGSKLQNWPVQIKLAPVNAPYFNGSKLLIAADCTAYAYAAFHQDFIRNKVTLIGCPKLDQVDYSEKLTAIIQNNSIQSVTIVRMEVPCCGGLEIAAKKALQASGKFIPWQVVTISIDGKIME | not soluble
3 | MSLSATNTNLHDLLARRIPGHALEQPFYTSPEIYQQDLEHIFYREWLYAIPACQLVKPGSYATLRIGAYNIVIVKGRDGEIRAFHNSCRHRSSIVCKAREGQVAKLVCPYHQWTYDLDGKLIWANSMGPDFDPTQHGLRSVALRNLKGLIYICLADTPPDFEAFARAAEPYLGVHDLQDAKVAYSSSIIEKGNWKLVWENNRECYHCSGNHPALCRSFPLDPEVAGVSADGSISQRIQDHFDACAAAGAPAQFLLGGDGQFRLARMPLQETAVSYTMDGKAAVARQLGRVAKPDAGSLLVFHYPSTWNHFLPDHSLTFRVTPISPTETEVTTTWLVHKDAVEGVDYDLQHLTEVWIATNDEDREIVETNQEGIFSPAYIPGPYSPDWESGVIQFIDWYAAWMERSLAPSRMAAEEGHHHHHH | soluble
4 | GMNQAMDTKQIAPFTLALPEGEALPLVCDSPHSGTFYPADFGAVVAPERLRGGEDTHVDALWEAVPRVGGTLLAATFPRVYIDPNRMLDDIDPAQLEGPWPTPLAPGEKTRLGYGLIWSNVDAATPIYDRKLTVAEVQRRINRYYRPYHAALTEAVEGAYQRFGAVWHLNLHSMPNNAYERLKIQSPRPLADFVLGDRDGTTCEPGLVDLVERELREKGYTVARNDPYKGVQLIAQIGRPAERRNSLQIEIRRPLYMEEGTRERNEGFATLQRDLTLLTLRIAEYVRRGV | soluble
5 | MGERKGQNFYYPPDFNYKTHKSLNGYHGTHALRERAKKIDQGILVIRFEMPFNIWCLGCHNHVGMGVRYNAEKKKIGMYYTTPLHEFRMKCHLCDNYYVIRTDPKNFDYELVEGCSRQELRFDPTDIAQIGAVDRGFTQKLAADAMFKKEHEAEDKDKAATEEGRVDKLEWIQERMRDDFTANSFLRAQFRNEKKSLNETRARDANLRDKLSIGTTQLLPETEEDRRIASMMTRYRDTKTHDDHLESSRDRIESRRIFRRPEETDTPSTSSGSSGGAVPSASERLKATMKAERDKRINASFSTAGTSSATQKLLGIKRKSASSLGVQIKKAAPENSSLQDEEPAVEKPNISNPISLIAQEYGNSSDDSD | not soluble
6 | MEILSDMWKEKITFIGINIDDEKSWKKFSQKNIKWITLNDPKEAFGLYIRYKANGIPFYVLVTPDGRISDIWYGYNKDSLSERLKQGVK | not soluble
7 | SNAMTKKKVYIVSHSHWDREWYLPYEEHHMRLIELVDNVLDLIENDPEFNSFHLDGQTIILDDYLQVRPEKKEAVKKAVQAGKLKIGPFYILQDDFLISSESNVRNMLIGHLESQKWGAPVQLGYFPDTFGNMGQTPQMMQLANLPAAAFGRGVKPIGFDNQVLESDYSSQYSEMWWEGPDQTKIFGLLFANWYSNGNEIPSEKEAAIAFWKQKLADVERYASTNHLLMMNGVDHQPVQRDITKAIALANELFPEYEFIHSNFDDYLKAVQEELPEDLGTVTGELTSQETDGWYTLANTSSARVYLKQWNTKVQRQLENIAEPLAAMAYEVTGDYPHDQFDYAWKTLLQNHPHDSICGCSVDEVHRGMMTRFENANDVGHFLADEATRQLTEAIDTSVFPEKAHPFVLFNTSGYQKTEVVTVEVEIERLPFYTGKPEDLYHELKQKATPDYQVIDPTGKAVASRIVKEDVRFGYDLPKDAFRQPYMAKYLTVELSVKEMAPFSWDSFALIQGETKAFEGSLLAQPATNEMENEFIQVKIENNGSLTIADKKTGETFSKLLTFEDTGDIGNEYIFFKPTEDQGITTENVTAEITNKENSPVKASYQIKQTVMLPVAADERLEEEQKAVREFRERLAQRSTTLRPFEITTMVTMIKESNQLFFETTINNQIKDHRLRVLFPTGMVTETHEADSIYEVVTRPNQVSDTWENPTNPQHQQAFVNVHDQNKGVTIFNEGLNEYEVLADGTIAVTLIRCVGELGDWGYFATPEAQCQGEYTFKYGLSLHGKPEERFATYQQAYSAQIPFTAATTARHEGKLAPNHVYLTTAEGPIGWTAVKRQEQTNHLVVRGFNLTAQNIPCELHKETQPATCLTNVLEEPLTPAIEVDAPLRPFEIRTWRFEK | soluble
8 | MCITFIKTAKSSLDKYKLILLNNRDEQLLRPTKEMHWHDGILSGVDKQENARGTWLGLNENGRIGMMLSITQTQESKNLHAPSRGGIVNEFLNANDTSKMIESLKKCASKYNGFQLVAVEKNSTGLYEVRTLANQQVDEIEVCQLKDEYHVVSNSPPTKPYQKAVQGKKLLREHLENSDQFSVDQIFEKLLSIAKNTTQWYPDAQLQYQTQNVEEYNRPLSAIFIKYPEGTRMYGTRCHTLITVDQKDKINILERRLLPEQSTWHDARFEFVLNGS | not soluble
9 | MGSDKIHHHHHHMIIMTYYTFVKPFFIKAVTHLHVSSGTSVEEEVDLPFQRDELNYPTIFASSLKGAIKSFLLKEYSNAREIIYKVLGSDENPDEASLGSFLDAVLFAIPARSIGVSGLDEAWVYVTTYELLRKVKSLLESMNTLSATQFTSLLDAINNILQESKNLIISDNAASVILNEDFYVELSNIQNEYIQSLLGDMLIENSTYNQSNQNSQSQGNHLVKPLIVLKDSIGREVINRSLIRVRRIKIKRSSKTVEEGGLWSEEYVPVNSLFFSSFLARGSKDTAYFADCILRKTRYLILGGKETIGKGIVELRWLND | not soluble
10 | MSLRKFSLIMATYGRKDEVGCFLESLMNSNYPMDKVEVIIVDQNKEIDLEPIISKYKEKIKVVHIKSNERGLALNRNKGLEIATGDIIAFPDDDCEYLVDTLNIVNNYFENEHCDLLMGRIVERNGEDSLREWPKEKIEINKNNFYTKCSSVTMFLDSKKCFVKFNDQLGAGKYFGACEDADLIYKNCKKGLKIIYNPELQIYHPHYDSNSNMDDKKIYSYGLGFGAMVKSNFDFSMLILFIKAEGYHFLKSLIYLITFKTTKSKRSWLAFKSRIKGFFEYKNEGHHHHHH | soluble
11 | MSTLQRRRVNRADSGDTSSIHSSANNTKGDKIANIAVDGDDDNGTNKKIAYDPEESKLRDNINIPTLTLMEEVLLMGLRDREGYLSFWNDSISYALRGCIIIELALRGKIRILDDSARKRFDLSERLIEVIDSSKTGEVLLDETLQLMKNDEPLSISNWIDLLSGETWNLLKINYQLKQVRERLAKGLVDKGVLRTEMKNFFLFDMATHPIADASCKEAIKRRVLSVLVSRNMELSYNEYFPETTSFKIIRTLALICGSYGANVLENVLTTLEYEKRDKAISRAEEIMAQFSQYPFDLEKETELGVSVNLNKEVKEEIENNPGHDLQLEVIAGVFEVFSRMDMLL | soluble
12 | MANPFSKAWKYLMALFDSKIEENADPKVQIQQAIEDAQRQHQELSQQAAAVIGNQRQLEMQLNRRLAEIEKLQGNTRQAIQLADKARAEGNIQKATEYENAAEAFAAQLVTAEQGVEDTKQLHDQALQQADAAKKAVERNAMVLQQKVAERTKLLSQLEQAKMQEKVAESIQSMNSISNRDTPNLDQVREKIERRYANALGTAELAQNSVQGRMAEVEQAGIQLAGHSRLEQIRAEMSGGQLGAGNSATQQSIESAQQATPSAADDAVARKMRELRGEA | not soluble
13 | MSLAEGGFVDDAKASFNLRNFYINRNFVDPANPQGKAEEWTQSFILDARSGFTQGTIGFGVDMLGLYSLKLDGGKGTAGTHLLPVHDDGRPADDFGRLGVALKARLSQTELKVGEWMPVLPILRSDDGRSLPQTFRGGQLTSRELDGLTLYAGQFRGNSPRNDASMEDMFMQGRTGITSDRFNFAGGEYTFNDKRTMLGLWNAQLKDIYRQQYVNLVHSQPLGEWTLGANLGYFLGKEDGSARAGDLDNRTASAMLSARYKGHTFYIGLQKVSGDDAWMRVNGTSGGTLANDSYNASFDNAKERSWQLRHDFNFVTVGLPGLTLMNRYIKGDNVHTSAVDDGKEWARETELAYVVQSGVFKDLSVKWRNSTMRRDFSSNAFDENRVIVSYPLNLLEGHHHHHH | soluble
14 | MGSDKIHHHHHHMNYTFELKELQATHIVYLHHQGDISLIPSSIRKLMQWAGPKGLINGPANKLISVYQHEGKVLSVDIGLTVPQEVEGESEISKGLLSGGLYAIGHFEIGTDEIPAAWSLMYTLTSKHQCKPCAGKSFEIYQSIPLDQHPQDKCMIDLCIPVQMIDLKLIEEKAISILTECDTAMLASVTEEGYPRPVPMGKIKADGISQIWFSTGTFSDKTIQFQLNPKAGVCFMKGGDSIVLTGKVEIVSDMEIKKALWSDWMFAHFPGGVIDPSYCILKFTSEEATYWIDNEFVKASI | not soluble
15 | MDNVVDRHVFYISDGTAITAEVLGHAVMSQFPVTISSITLPFVENESRARAVKDQIDAIYQQTGVRPLVFYSIVLPEIRAIILQSEGFCQDIVQALVAPLQQEMKLDPTPIAHRTHGLNPGNLNKYDARIAAIDYTLAHDDGISLRNLDQAQVILLGVSRCGKTPTSLYLAMQFGIRAANYPFIADDMDNLTLPTSLKPLQHKLFGLTIDPERLAAIREERRENSRYASLRQCRMEVAEVEALYRKNQIPCLNSTNYSVEEIATKILDIMGLNRRMYLEHHHHHH | soluble
16 | MTESPTTHHGAAPPDSVATPVRPWSEFRLTPAEAAAAAALAARCAQRYDETDGPEFLLDAPVIAHELPKRLRTFMARARLDAWPHALVVRGNPVDDAALGSTPVHWRTARTPGSRPLSFLLMLYAGLLGDVFGWATQQDGRVVTDVLPIKGGEHTLVSSSSRQELGWHTEDAFSPYRADYVGLLSLRNPDGVATTLAGVPLDDLDERTLDVLFQERFLIRPDDSHLQVNNSTAQQGRVEFEGIAQAADRPEPVAILTGHRAAPHLRVDGDFSAPAEGDEEAAAALGTLRKLIDASLYELVLDQGDVAFIDNRRAVHGRRAFQPRYDGRDRWLKRINITRDLHRSRKAWAGDSRVLGQR | soluble
17 | MTQTNRVIIFDTTLRDGEQSPGAAMTKEEKIRVARQLEKLGVDIIEAGFAAASPGDFEAVNAIAKTITKSTVCSLSRAIERDIRQAGEAVAPAPKKRIHTFIATSPIHMEYKLKMKPKQVIEAAVKAVKIAREYTDDVEFSCEDALRSEIDFLAEICGAVIEAGATTINIPDTVGYSIPYKTEEFFRELIAKTPNGGKVVWSAHCHNDLGLAVANSLAALKGGARQVECTVNGLGERAGNASVEEIVMALKVRHDLFGLETGIDTTQIVPSSKLVSTITGYPVQPNKAIVGANAFSHESGIHQDGVLKHRETYEIMSAESVGWATNRLSLGKLSGRNAFKTKLADLGIELESEEALNAAFARFKELADKKREIFDEDLHALVSDEMGSMNAESYKFISQKISTETGEEPRADIVFSIKGEEKRASATGSGPVDAIFKAIESVAQSGAALQIYSVNAVTQGTESQGETSVRLARGNRVVNGQGADTDVLVATAKAYLSALSKLEFSAAKPKAQGSGTI | not soluble
18 | SNRLGIPALSGDTLSLLNTPSEILNAIISDIEKAEHEINMEFYIWHHGGLADSVASALIVAAKRGVTVNVLLDSAGSMDFFKSHWPKLLKQSGVNIVEALSVSPFRMFFRRLDLRLHRKIVVIDNRIAYTGSMNLVDPQYFKQNSGVGQWIDVMVRLTGPNVAILNTIHAWDWEVETGIRELPHLPECPASIDPFNHTTQVVPSGPGMPDDIIQQV | not soluble
